Numbering of substitutions follows the chain as printed.

In one assay the target is mVISTA-COMP-his (Mus musculus, UniProt Q9D659). The assay is described as follows: SPR.
Assay [1] concerns the target T1, hVISTA-COMP-his (Homo sapiens, UniProt Q9H7M9). Description: SPR.
Target sequence in this assay (Q9H7M9 whole entry, looked up, tested part not stated): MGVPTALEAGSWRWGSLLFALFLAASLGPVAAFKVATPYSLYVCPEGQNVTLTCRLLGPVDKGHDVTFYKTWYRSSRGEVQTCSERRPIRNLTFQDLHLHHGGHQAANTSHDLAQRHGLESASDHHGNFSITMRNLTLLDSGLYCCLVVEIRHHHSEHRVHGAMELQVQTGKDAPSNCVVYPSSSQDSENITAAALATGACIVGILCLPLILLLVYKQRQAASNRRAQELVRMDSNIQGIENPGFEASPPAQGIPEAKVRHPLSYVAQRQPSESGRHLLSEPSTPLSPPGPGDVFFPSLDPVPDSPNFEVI
Another assay addresses hVISTA-Fc (Homo sapiens (Human)., UniProt Q9H7M9). The assay is described as follows: SPR.
Assay [2] has as its target T1, hVISTA-COMP-his.
Target sequence in this assay (Q9H7M9 33-168): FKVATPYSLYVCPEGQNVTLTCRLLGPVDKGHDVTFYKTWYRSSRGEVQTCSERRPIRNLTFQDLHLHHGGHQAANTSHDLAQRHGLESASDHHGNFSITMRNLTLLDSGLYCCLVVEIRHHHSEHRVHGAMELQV

mVISTA-COMP-his, sequence (Q9D659 whole entry, looked up, tested part not stated): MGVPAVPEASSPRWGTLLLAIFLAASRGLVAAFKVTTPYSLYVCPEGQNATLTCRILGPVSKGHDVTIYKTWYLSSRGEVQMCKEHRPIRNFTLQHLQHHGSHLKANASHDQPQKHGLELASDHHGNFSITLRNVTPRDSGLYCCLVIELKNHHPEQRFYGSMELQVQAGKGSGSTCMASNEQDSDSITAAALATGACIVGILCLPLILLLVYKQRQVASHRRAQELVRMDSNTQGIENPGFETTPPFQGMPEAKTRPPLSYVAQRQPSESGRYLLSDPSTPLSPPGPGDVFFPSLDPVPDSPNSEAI
hVISTA-Fc, sequence (Q9H7M9 33-194): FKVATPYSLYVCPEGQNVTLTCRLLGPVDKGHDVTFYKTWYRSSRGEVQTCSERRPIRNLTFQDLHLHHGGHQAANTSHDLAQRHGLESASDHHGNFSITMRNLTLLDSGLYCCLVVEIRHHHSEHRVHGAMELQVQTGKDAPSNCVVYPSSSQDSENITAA

B1: rat anti-hmVISTA mAb 7C7 (antibody, V domains shown)
VH: EVQLVESGGGLVQPGRSLKLSCVASGFTFNKYWMSWTRQAPGKGLEWVASITNSGGNTYYPDSVKGRFTISRDNAQNTLYLQMNSLRSEDTATYYCTLGVDYWGQGAMVTVSS
VL: DVVMTQTPPSLSVTIGQSVSISCKSSQSLVYSDGKTYLHWLLQSSGRSPKRLIYQVSNLASGVPDRFSGTGSQKDFTLKISRVEAKDLGVYYCAQTTHFPYTFGAGTKLEMK
As to B1, the Kd with mVISTA-COMP-his is 51 nM; with hVISTA-COMP-his [1], 49 nM.

B2: anti-hVISTA nanobody hVISTANb7 (VHH)
VHH: QVQLQESGGGLVYPGGSLRLSCTASGFAFTNAYMNWVRQAPGKGAEWVSGITRDSNRTSYADSVKGRFTISRDNAKNTLYLQMDSLKSDDTALYYCNAEPSGWWLDDDYWGQGTQVTVSS
In turn, B2 returned a Kd with hVISTA-Fc of 7.5 nM.

B3: murine anti-hVISTA mAb 7G5 (antibody, V domains shown)
VH: QIQLVQSGPELKKPGETVKISCKASGYTFTNYGMNWVKQAPEKGLKWMGWINTYTGEPTYADDFKGRFAFSLETSASTAYLQINNLKNEDTATYFCARRSNPWPNDYWGQGTSLTVSS
VL: DIQMTQSPSSFSASLGERVSLTCRASQEISGYLSWLQQKPDGTIKRLIYAASTLDSGVPKRFSGSRSGSDYSLTISSLESEDFADYYCLQYASYPWTFGGGTKLEIK
In the case of B3, the binding result in the assay with mVISTA-COMP-his was “no binding”. Also, the Kd with hVISTA-COMP-his [1] stood at 0.14 nM.

B4: Nb3 [hVISTANb3] (VHH)
VHH: QVQLQESGGGLVHPGGSLRLSCAASGSVGTIFSMGWFRQAPGVQREMVATITNSGETNYAAFVKGRFTITRDNAQNTVYLQMNSLKPEDTAAYYCNAFDYVGGRTYELPYWGQGTQVTVSS
B4: the binding result with hVISTA-COMP-his [2] is reported as “binds”.

B5: Nb2 [hVISTANb2] (VHH)
VHH: B4 VHH with T70S, Q75E, V78M, Q81E, S84D
As to B5, in the assay with hVISTA-COMP-his [2], the binding result was “binds”.

B6: anti-hVISTA nanobody hVISTANb1 (VHH)
VHH: B4 VHH with H13Q, T70S, Q75E
Take B6: the dissociation constant (Kd) in the assay with hVISTA-Fc was 11 nM.

B7: Nb6 [hVISTANb6] (VHH)
VHH: B4 VHH with V28G, G29V, T70S, T77A
Consider B7, for which the binding result in the assay with hVISTA-COMP-his [2] is “binds”.

B8: murine anti-hVISTA mAb 7E12 (antibody, V domains shown)
VH: DVHLQESGPGLVKPSQSLSLTCSVTGYSITSGYYWNWIRQFPGNKLEWMGYISYDGNNNYNPSLKNRISITRDTSKNQFFLKLNSVTTEDTATYYCARGDYGSEAMDYWGQGTSVTVSS
VL: DIRVTQSPASLAVSLGQRATISCRASKSVSTSGYSYMNWYQQKPGQPPQLLIYLASNLESGVPARFSGSGSGTDFTLNIHPVEEEDAAIYYCQHSRELPWTFGGGTKLEIK
As for B8, in the assay with mVISTA-COMP-his, the binding result is given as “no binding”. The molecule further returned a dissociation constant (Kd) in the assay with hVISTA-COMP-his [1] of 0.44 nM.

The values above are taken from paper PMC8632329 (mAbs, 2021).
